Test results reported in patent US20230212319A1, “NOVEL ANTIGEN BINDING DOMAINS AND SYNTHETIC ANTIGEN RECEPTORS INCORPORATING THE SAME” (University of Southern California, priority 2020, published 2023).

Experiments:
DAUDI (CD20+) cells = format: cell-based
RS411 cells = format: cell-based
RAJI cells = assay: JNG (Jurkat NFAT-GFP) cells expressing SAR: GFP induction on co-culture with RAJI
L428 cells = assay: JNG assay, co-culture with L428 cells; format: cell-based
Method: Cellular supernatant is collected and assayed for the induction of cytokines (e.g., IL2).
JNG (Jurkat cells expressing EGFP under an NFAT promoter) were infected with lentiviral vectors encoding different single chain and multi-chain SARs by spinfection in the presence of 8 µg/ml of Polybrene® (Sigma, Catalog no. H9268). The Jurkat-NFAT-GFP cells are engineered in such a way that the IL-2 promoter, which carries NFAT binding sites, is cloned upstream of the GFP gene. These cells have been used to study signaling via TCR and CAR. The different SARs were stably expressed in Jurkat NFAT-GFP cells by lentiviral mediated gene transfer, followed by selection with puromycin or blasticidin. No drug selection was used in case the construct lacked an antibiotic resistance gene. The SAR-expressing Jurkat-NFAT-GFP cells were cocultured with the target cells at E:T ratio of approximately 1:2 for approximately 4 hours to 18 hours. When the interaction between SIRs and their target antigen results in activation of the NFAT pathway, GFP expression is induced. […] GFP expression was monitored by FACS analysis. The Jurkat-NFAT-GFP (parental) cells were used as control. The structure of different constructs can be determined based on their names. […] The sequence of the other constructs in the table can be similarly determined from their names and by referring to the different Tables of this disclosure that provide the names and SEQ ID NO of the different modules. Alternatively, the composition and modular architecture of the different SAR constructs can be determined from their sequences by bioinformatics tools, including using nucleic acid and amino acids homology searches. […] The signs +/-, +, 2+ etc. after the name of the cell lines indicate the relative degree of positivity on the Jurkat-NFAT-GFP assay as measured by the % GFP positive cells after culture of the SAR expressing Jurkat-NFAT-GFP cells with that cell line above the % GFP cells observed in parental Jurkat NFAT-GFP cells serving as controls. […]

B1: 4090 (protein)
chain: MALPVTALLLPLALLLHAARPDIQMTQSPSSLSASVGDRVTITCKASDHINNWLAWYQQKPGQAPKLLIYGATTLETGVPSRFSGSGSGTDYTLTISSLQPEDFATYYCQQSWNTPWTFGQGTKLEIKRLEDLKNVFPPEVAVFEPSEAEISHTQKATLVCLATGFYPDHVELSWWVNGKEVHSGVCTDPQPLKEQPALNDSRYCLSSRLRVSATFWQNPRNHFRCQVQFYGLSENDEWTQDRAKPVTQIVSAEAWGRADCGFTSESYQQGVLSATILYEILLGKATLYAVLVSALVLMAMVKRKDSRGRAKRSGSGATNFSLLKQAGDVEENPGPTSMDWIWRILFLVGAATGAHSGPQVQLQESGGGLAQAGGSLRLSCAASGRTFSMGWFRQAPGKEREFVAAITYSGGSPYYASSVRGRFTISRDNAKNTVYLQMNSLKPEDTAVYYCAANPTYGSDWNAENWGQGTQVTVSSGSGGGGSGGGGSGGGGSFEQVQLQQPGAELVKPGASVKMSCKASGYAFSSYWINWMKQKPGQGLEWIGQIYPGDGDTNYNGKFKGRATLTADTSSSTAYMQLSSLTSEDSAVYFCARSITTVVGCAMDYWGQGTSVTVSSTRIQNPDPAVYQLRDSKSSDKSVCLFTDFDSQTNVSQSKDSDVYITDKCVLDMRSMDFKSNSAVAWSNKSDFACANAFNNSIIPEDTFFPSPESSCDVKLVEKSFETDTNLNFQNLSVIGFRILLLKVAGFNLLMTLRLWSSRAKRSGSGVKQTLNFDLLKLAGDVESNPGPSRGHMTEYKPTVRLATRDDVPRAVRTLAAAFADYPATRHTVDPDRHIERVTELQELFLTRVGLDIGKVWVADDGAAVAVWTTPESVEAGAVFAEIGPRMAELSGSRLAAQQQMEGLLAPHRPKEPAWFLATVGVSPDHQGKGLGSAVVLPGVEAAERAGVPAFLETSAPRNLPFYERLGFTVTADVEVPEGPRTWCMTRKPGA
modifications: Synthetic Polynucloetide
GFP induction (JNG-GFP induction assay), DAUDI (DAUDI (CD20+) cells): highly positive
GFP induction (JNG-GFP induction assay), RS;411 (RS411 cells): highly positive
GFP induction (JNG-GFP induction assay), RAJI WT (RAJI cells): positive

B2: 22164 (protein)
chain: MALPVTALLLPLALLLHAARPDIQMTQSPSSLSASVGDRVTITCKASDHINNWLAWYQQKPGQAPKLLIYGATTLETGVPSRFSGSGSGTDYTLTISSLQPEDFATYYCQQSWNTPWTFGQGTKLEIKRLEDLKNVFPPEVAVFEPSEAEISHTQKATLVCLATGFYPDHVELSWWVNGKEVHSGVCTDPQPLKEQPALNDSRYCLSSRLRVSATFWQNPRNHFRCQVQFYGLSENDEWTQDRAKPVTQIVSAEAWGRADCGFTSESYQQGVLSATILYEILLGKATLYAVLVSALVLMAMVKRKDSRGRAKRSGSGATNFSLLKQAGDVEENPGPTSATMDWIWRILFLVGAATGAHSGPEVQLVESGGGLVQAGGSLRLSCAASGSVFSGNVMGWYRQAPGKEREWVAAIASGGSIYYRDSVKGRFTISRDNAKNTVYLQMNSLKPEDTAVYYCNSHPPTLPYWGLGTQVTVSSGSGGGGSGGGGSGGGGSFEQVQLQQPGAELVKPGASVKMSCKASGYAFSSYWINWMKQKPGQGLEWIGQIYPGDGDTNYNGKFKGRATLTADTSSSTAYMQLSSLTSEDSAVYFCARSITTVVGCAMDYWGQGTSVTVSSTRIQNPDPAVYQLRDSKSSDKSVCLFTDFDSQTNVSQSKDSDVYITDKCVLDMRSMDFKSNSAVAWSNKSDFACANAFNNSIIPEDTFFPSPESSCDVKLVEKSFETDTNLNFQNLSVIGFRILLLKVAGFNLLMTLRLWSSRAKRSGSGVKQTLNFDLLKLAGDVESNPGPSRGHMTEYKPTVRLATRDDVPRAVRTLAAAFADYPATRHTVDPDRHIERVTELQELFLTRVGLDIGKVWVADDGAAVAVWTTPESVEAGAVFAEIGPRMAELSGSRLAAQQQMEGLLAPHRPKEPAWFLATVGVSPDHQGKGLGSAVVLPGVEAAERAGVPAFLETSAPRNLPFYERLGFTVTADVEVPEGPRTWCMTRKPGA
NFAT-GFP ASSAY: L428 (L428 cells; co-culture with L428): 3+ (refer to approximately 5%, 10%, 20%, 30%, 40% and 50% GFP positive cells)

B3: SEQ ID NO: 22292: D domain (Afo3) binding a p26 domain, attached to the N-terminus of the vL fragment of a hu-mROO5-1 based SIR (protein)
chain: MALPVTALLLPLALLLHAARPACMGSWFEFYDRLNAIDARLWALGGSEAELAAFEKEIAAFESELQAYKGKGNPEVENLRVHAAAIREWLQAYRHNGTGGGGSGGGGSGGGGSEFDIQMTQSPSSLSASVGDRVTITCKASDHINNWLAWYQQKPGQAPKLLIYGATTLETGVPSRFSGSGSGTDYTLTISSLQPEDFATYYCQQSWNTPWTFGQGTKLEIKRLEDLKNVFPPEVAVFEPSEAEISHTQKATLVCLATGFYPDHVELSWWVNGKEVHSGVCTDPQPLKEQPALNDSRYCLSSRLRVSATFWQNPRNHFRCQVQFYGLSENDEWTQDRAKPVTQIVSAEAWGRADCGFTSESYQQGVLSATILYEILLGKATLYAVLVSALVLMAMVKRKDSRGRAKRSGSGATNFSLLKQAGDVEENPGPTSMDWIWRILFLVGAATGAHSFEQVQLQQPGAELVKPGASVKMSCKASGYAFSSYWINWMKQKPGQGLEWIGQIYPGDGDTNYNGKFKGRATLTADTSSSTAYMQLSSLTSEDSAVYFCARSITTVVGCAMDYWGQGTSVTVSSTRIQNPDPAVYQLRDSKSSDKSVCLFTDFDSQTNVSQSKDSDVYITDKCVLDMRSMDFKSNSAVAWSNKSDFACANAFNNSIIPEDTFFPSPESSCDVKLVEKSFETDTNLNFQNLSVIGFRILLLKVAGFNLLMTLRLWSSRAKRSGSGVKQTLNFDLLKLAGDVESNPGPSRGHMTEYKPTVRLATRDDVPRAVRTLAAAFADYPATRHTVDPDRHIERVTELQELFLTRVGLDIGKVWVADDGAAVAVWTTPESVEAGAVFAEIGPRMAELSGSRLAAQQQMEGLLAPHRPKEPAWFLATVGVSPDHQGKGLGSAVVLPGVEAAERAGVPAFLETSAPRNLPFYERLGFTVTADVEVPEGPRTWCMTRKPGA
GFP induction (L428 cells; L428 cells (CD123+), only in the presence of SAR adaptor bc40-p26-CD123-cg06 (SEQ ID NO: 23120)): robust induction of GFP

B4: 22292 (protein)
chain: MALPVTALLLPLALLLHAARPACMGSWFEFYDRLNAIDARLWALGGSEAELAAFEKEIAAFESELQAYKGKGNPEVENLRVHAAAIREWLQAYRHNGTGGGGSGGGGSGGGGSEFDIQMTQSPSSLSASVGDRVTITCKASDHINNWLAWYQQKPGQAPKLLIYGATTLETGVPSRFSGSGSGTDYTLTISSLQPEDFATYYCQQSWNTPWTFGQGTKLEIKRLEDLKNVFPPEVAVFEPSEAEISHTQKATLVCLATGFYPDHVELSWWVNGKEVHSGVCTDPQPLKEQPALNDSRYCLSSRLRVSATFWQNPRNHFRCQVQFYGLSENDEWTQDRAKPVTQIVSAEAWGRADCGFTSESYQQGVLSATILYEILLGKATLYAVLVSALVLMAMVKRKDSRGRAKRSGSGATNFSLLKQAGDVEENPGPTSMDWIWRILFLVGAATGAHSFEQVQLQQPGAELVKPGASVKMSCKASGYAFSSYWINWMKQKPGQGLEWIGQIYPGDGDTNYNGKFKGRATLTADTSSSTAYMQLSSLTSEDSAVYFCARSITTVVGCAMDYWGQGTSVTVSSTRIQNPDPAVYQLRDSKSSDKSVCLFTDFDSQTNVSQSKDSDVYITDKCVLDMRSMDFKSNSAVAWSNKSDFACANAFNNSIIPEDTFFPSPESSCDVKLVEKSFETDTNLNFQNLSVIGFRILLLKVAGFNLLMTLRLWSSRAKRSGSGVKQTLNFDLLKLAGDVESNPGPSRGHMTEYKPTVRLATRDDVPRAVRTLAAAFADYPATRHTVDPDRHIERVTELQELFLTRVGLDIGKVWVADDGAAVAVWTTPESVEAGAVFAEIGPRMAELSGSRLAAQQQMEGLLAPHRPKEPAWFLATVGVSPDHQGKGLGSAVVLPGVEAAERAGVPAFLETSAPRNLPFYERLGFTVTADVEVPEGPRTWCMTRKPGA
NFAT-GFP ASSAY: L428 with bc40-p26-CD123-cg06 (L428 cells; L428 in presence of SAR adaptor bc40-p26-CD123-cg06): +3
